Tests used:
human CCR8 (human) [1] = molecular target: human CCR8 (human) (UniProt P51685); experiment: cell-based or functional assay
[2] = molecular target: cynomolgus monkey CCR8 (cynomolgus monkey); experiment: assay not described ('in vitro assays')
human CCR8 (human) [3] = molecular target: human CCR8 (human) (UniProt P51685); experiment: assay not described ('in vitro assays')

cynomolgus monkey CCR8 (cynomolgus monkey), sequence (O97665 other isoform, or with tags, fused parts or gaps): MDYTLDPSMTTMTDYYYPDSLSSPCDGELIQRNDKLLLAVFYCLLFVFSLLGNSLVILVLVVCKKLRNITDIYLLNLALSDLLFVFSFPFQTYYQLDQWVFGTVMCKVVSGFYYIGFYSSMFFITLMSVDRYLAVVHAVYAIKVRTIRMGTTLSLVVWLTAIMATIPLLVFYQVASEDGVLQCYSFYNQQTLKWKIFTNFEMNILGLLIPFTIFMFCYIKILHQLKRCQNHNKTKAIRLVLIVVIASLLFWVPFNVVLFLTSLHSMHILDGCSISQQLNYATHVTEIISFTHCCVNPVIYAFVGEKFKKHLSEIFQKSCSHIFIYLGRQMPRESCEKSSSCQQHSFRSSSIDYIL

With “murine anti-human CCR8 mAb L263G8 (Biolegend) (antibody)” the IC50 of CCL1 blocking (Ca2+ influx, CHO/hCCR8.Gna15 cells) (human CCR8 (human) [1]) was 0.0236 µM, the induction fold at plateau (about 40 nM antibody), mFcgRIV Jurkat reporter with CHO/hCCR8 (human CCR8 (human) [1]) was 11 fold and the induction fold, mFcgRIV Jurkat NFAT-luciferase reporter with CHO/hCCR8, at about 1 nM antibody (human CCR8 (human) [1]) was > 10 .fold.
RO7502175 (antibody) gave a Kd [2] of 27 µM, a Kd (human CCR8 (human) [3]) of 32 µM and an ADCC geometric mean EC50 (calcein release; PBMC effector cells of 8 donors, hCCR8.GNA15 CHO target cells) (human CCR8 (human) [1]) of 3 ng/mL.
